Assays:
[1] = biological target: recombinant human sPLA2-X (human group X secreted phospholipase A2), mature enzyme (human) (UniProt O15496); test: indirect ELISA on wells coated with 50 ng recombinant human sPLA2-X; one-site saturation fit, relative Kd
[2] = biological target: T1, recombinant human sPLA2-X (human group X secreted phospholipase A2), mature enzyme (human, UniProt O15496 43-165); test: as above
T1 construct: also called hGX
T1 sequence: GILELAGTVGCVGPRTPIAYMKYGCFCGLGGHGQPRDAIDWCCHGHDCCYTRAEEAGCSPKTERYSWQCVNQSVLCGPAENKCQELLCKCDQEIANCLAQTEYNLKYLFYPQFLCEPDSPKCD

[3] = biological target: T1, recombinant human sPLA2-X (human group …); test: indirect ELISA on coated recombinant human sPLA2-X, anti-mouse IgG-HRP detection; one-site saturation fit
[4] = biological target: T1, recombinant human sPLA2-X (human group …); test: indirect ELISA on coated recombinant human sPLA2-X, streptavidin-HRP detection; one-site saturation fit
[5] = biological target: T1, recombinant human sPLA2-X (human group …); test: indirect ELISA on coated recombinant human sPLA2-X

Question: Which Kd [1] does the source give for “commercially available monoclonal antibody H9 (ref. SC-365730, Santa Cruz Biotechnology)” here?
Answer: Its Kd is 8.94 nM.

B1: monoclonal anti-sPLA2-X antibody #8D9 (antibody, V domains shown)
VH: EVKLVESGGGLVKPGGSLKLSCAASGFTFSNYPMSWVRQTPAKRLEWVATISSGGDDTYYPDSVKGRFTISRDNARNTLYLQMSCLRSEDTALYYCARPQLGPWGQGTTLTVSS
VL: DIVMTQAAPSVPVTPGDSVSISCRSSKSLLHSNGITYLYWFLQRPGQSPQRLIYYMSNLASGVPDRFSGRGSGTDFTLRISRVEAEDVGVYYCMQSLEYPLTFGAGTKLELKR
notes: Mouse monoclonal antibody from a hybridoma, purified by protein A; also called 8D9 antibody; hybridoma CNCM I-4523
Question: Which results are given for B1?
Answer: Kd [2]: 0.327 nM; Kd [3]: 0.246 nM

B2: biotinylated monoclonal antibody #8D9 (antibody, V domains shown)
VH: B1 VH
VL: B1 VL
modifications: biotinylated (Pierce kit ref. 21435); sites not stated
notes: also called #8D9-Biot; 8D9-biot
Question: How did the Kd [4] turn out when B2 was run?
Answer: The Kd was 0.353 nM.

B3: biotinylated monoclonal antibody #9C12 (antibody, V domains shown)
VH: QIQLVQSGPELKKPGETVKISCKASGYTFTNYGMNWVKQAPGKGLKWMGWIKTNTGEPTYAEEFKGRFAFSLETSASTAYLQINNLKNEDTATYFCARGNYYRPRRYFDYWGQGTTLTVSS
VL: DIQMSQSPASLSASVGETVTMTCRASENLYSNLAWYQQKQGKSPQLLVYAATNLADGVPSRFSGSGSGTQFSLKINSLQPEDFGSYYCQHFYVTPYTFGGGTKLEIKR
modifications: biotinylated (Pierce kit ref. 21435); sites not stated
notes: also called #9C12-Biot
Question: Does B3 bind [5]?
Answer: Result: binds

B4: monoclonal anti-sPLA2-X antibody #9C12 (antibody, V domains shown)
VH: B3 VH
VL: B3 VL
notes: Mouse monoclonal antibody from a hybridoma, purified by protein A; also called 9C12 antibody; hybridoma CNCM I-4524
Question: With B4 as the molecule, how does the Kd [2] read?
Answer: The Kd was 0.181 nM.

From patent US20140370030A1 (CENTRE NATIONAL DE LA RECHERCHE SCIENTIFIQUE CNRS, published 2014)
